Assay results as given in patent US20080139456A1, “Macrocyclic Sh2 Domain Binding Inhibitors” (priority 2005, published 2008).
Read-outs that look alike come from different tables or passages of the source.

Experiments:
[1] = molecular target: T1, Grb2 SH2 domain protein (Homo sapiens, UniProt P62993); test: Biosensor (Biacore S51 surface plasmon resonance) direct binding to chip-bound Grb2 SH2 domain protein; settings: binding affinity to Grb2 SH2 domain protein, complex binding kinetics
T1 construct: made in house
T1 sequence (P62993 60-152 limits assumed): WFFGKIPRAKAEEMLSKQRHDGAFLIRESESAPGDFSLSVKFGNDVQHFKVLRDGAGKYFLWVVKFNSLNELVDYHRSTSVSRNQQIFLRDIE
Method: Biosensor Analysis: Binding experiments were performed on a Biacore S51 instrument (Biacore Inc., Piscataway N.J.). All Biotinylated Grb2 SH2 domain proteins (b-Grb2) were expressed and purified (Protein Expression Laboratory and The Protein Chemistry Laboratory, SAIC—Frederick). The b-Grb2 was immobilized onto carboxymethyl 5′ dextran surface (CM5 sensor chip, Biacore Inc.) by amine coupling. The lyophilized b-Grb2 was reconstituted in fifty percent DMSO in H2O to make a stock solution of 1 mg/mL and stored at −80° C. A 1: 12.5 dilution of b-Grb2 was used for immobilization, by dilution in acetate buffer pH-5.0, with 5% DMSO. 1×PBS (phosphate buffered saline, pH 7.4) was used as the running buffer.
An immobilization wizard was used to optimize the immobilization target. For b-Grb2, 2500-5000 resonance units (RU) of protein were captured on the CM5 sensor chip. Small molecules were serially diluted in running buffer to the concentrations (1.25 nM-1500 nM) as indicated in each sensorgram and injected at 25° C. at a flow rate of 30 μL/min for 2 minutes. Varying concentrations of small molecules were injected in increasing concentrations, and every injection was performed in duplicate within each experiment. […]

[2] = molecular target: Biotinylated Grb2 SH2 domain protein (UniProt P62993); test: SPR (Biacore S51), steady state, compound injected over immobilized b-Grb2 SH2 domain
Sequence of Biotinylated Grb2 SH2 domain protein (P62993 60-152 limits assumed): as above

Kd ([1]; first of two Kd values, read-out: Kd (complex binding kinetics, first value))	Kd ([1]; second of two Kd values, read-out: Kd (complex binding kinetics, second value))	Kd [2]	Compound
0.0093 ± 0.0001 µM	21.3 ± 0.5 µM	–	NC(=O)CC1NC(=O)C2(CCCCC2)NC(=O)[C@@H](CC(=O)O)[C@@H](c2ccc(CP(=O)(O)O)cc2)/C=C/CCC2(CCCCC2)CNC1=O (some centres unmarked) [compound 24]
–	–	54.9 nM	Cyclo{[(2R,3R)-3-(4-dihydroxyphosphonomethyl)phenyl-2-(hydroxycarbonylmethyl)pent-4-enyl]-Ac6c-L-Asn-D-AllylGly}-(1-naphthyl)methyl amide (4) (peptide)
–	–	22.7 nM	Cyclo{[(2R,3R)-3-(4-dihydroxyphosphonomethyl)phenyl-2-(hydroxycarbonylmethyl)pent-4-enyl]-Ac6c-L-Asn-L-AllylGly}-(1-naphthyl)methyl amide (3) (peptide)
–	–	5610 nM	[(2R)-3-(4-Dihydroxyphosphonomethyl)phenyl-2-(hydroxylcarbonylmethyl)propionyl]-Ac6c-L-Asn-Gly-(1-naphthyl)methyl amide (2) (peptide)
